Experimental data published in patent publication US12624096B2, “Anti-tau antibodies and methods of use thereof” (GTInvent Limited, priority 2020, dated 2026).
“Also recorded” adds a separate entry of the source.

B1: S1D12: anti-tau clone from immunised sheep, SEQ ID NO: 32 (protein)
scFv: QVQLQESGPSLVKPSQTLSLTCTVSGFSLNNNAVGWVRQAPGKVPESLVGCSSDGTCYYNSALKSRLDITRDTSKNQISLSLSSVTTDDAAVYYCTRGHYSIYGYDYLGTIDYWGPGLLVTVSSEGKSSGASGESKVDDQAVLTQPSSVSGSLGQRVSITCSGSSSNVGGGNSVGWYQHLPGSGLKTIIYDTNSRPSGVPDRFSGSRSGNTATLTINSLQAEDEGDYYCVTGDSTTHDDLVGSGTRLTVLG
modifications: S1D12 amino acid sequence
B2: S1G2: anti-tau clone, SEQ ID NO: 81 (protein)
scFv: QVQLQESGPSLVKPSQTLSLTCTVSGFSLTSNSVGWVRQAPGKAPEWVAGIDTDGEEGYNPALNSRLSITRDTSKSQVSLSLSSVTSEDTAVYYCGRSYRADGLAYGYVQAIDYWGPGLLVTVSSEGKSSGASGESKVDDQAVVTQPSSVSGSLGQRVSITCSGSFIGISSVGWFQQLPGSGLRTIIVASDGRPSGVPDRFSMSKSGNTATLTISSLQAEDEADYFCGSSDRTPYTGVFGSGTRLTVLG
modifications: S1G2 amino acid sequence

Experiments:
plasma tau = assay: Plasma tau (Simoa) after S1D12 immunotherapy; format: in vivo, mouse; settings: L66 mice
Procedure: In a six-week repeat-dose study, a total of 12 WT, 12 Line 1 (L1) and 12 Line 66 homozygotes (L66+/*) female mice aged 2-months at the beginning of the study were used (Table 32 for group size). Mice in each genotype were injected intraperitoneally (i.p.) with either vehicle or S1D12 (30 mg/kg), once per week, for six consecutive weeks.
Three-step assays were performed and analysed as per previously described plasma screening methods in this document.

dGAE [1] = biological target: T1, dGAE (Homo sapiens, UniProt P10636); assay: dGAE fibril assembly, Thioflavin S fluorescence; format: biochemical; settings: 25 and 100 μM dGAE, ratios 4:1 or 1:1
T1 sequence (P10636 614-708): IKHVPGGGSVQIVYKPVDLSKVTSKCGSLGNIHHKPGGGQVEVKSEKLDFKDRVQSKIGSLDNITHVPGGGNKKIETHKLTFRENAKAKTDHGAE
Procedure: (§1) dGAE protein was diluted into 10 mM phosphate buffer, pH 7.4 (PB) with monoclonal antibody s1D12 at a ratio of 4:1 protein: Ab (100 μM dGAE+25 μM s1D12 and 10 μM dGAE+2.5 μM s1D12) or 1:1 (25 μM dGAE+25 μM s1D12).
(§2) As a positive control, dGAE was prepared at a final concentration of 10, 25 or 100 μM in 10 mM PB. Negative controls consisted of dGAE with a non-tau IgG antibody at a ratio of 4:1 (10 μM dGAE+2.5 μM anti-ovalbumin), or antibody alone (25 or 2.5 μM s1D12 and 2.5 μM anti-ovalbumin). Samples were agitated at 700 rpm at 37° C., for 3 days.
(§3) For CD, 60 μL sample was placed in a 0.1 mm quartz cuvette and placed into a JASCO spectropolarimeter. 100 μL ThS in 20 mM MOPS buffer was added to 50 μL of each sample to a final concentration of 20 μM, mixed well, incubated at room temperature for 10 minutes then fluorescence intensity measured in a Cary Eclipse spectrophotometer using an excitation wavelength of 440 nm. Baseline readings from 10 mM PB were subtracted from CD and ThS measurements.

dGAE [2] = biological target: T1, dGAE; assay: dGAE fibril assembly, circular dichroism; format: biochemical; settings: 100 μM dGAE + 25 μM antibody (4:1), antibody spectrum subtracted
Procedure: as §1, §2, §3

[3] = system: tau protein in brain homogenate; assay: Capture ELISA on transgenic mouse brain lysates; format: binding; settings: S1D12 mAb capture; WT, L1, L66+/- and L66+/+
Procedure: Mouse brain lysates were prepared from wildtype, Line 1, Line 66+/+ and Line 66+/− (Melis et al., 2015, all surplus from Charles River, part of study R0144). All animals were female, 7-8 months old except Line 66+/+ which were 5 months old. […] The L1 cDNA construct (FIG. 23) contains human tau cDNA coding for amino acid residues 296-390 with a signal sequence and related sequences in a murine Thy-1 expression cassette. For brain lysate preparation, half brains were sectioned into four and the individual sections were homogenised in 400 μl of ice cold RIPA buffer (Cell signalling Technology) containing protease and phosphatase inhibitors. Total protein concentrations for individual samples were established by BCA-assay and each sample was subsequently diluted to 1 mg/ml for future experiments.
For capture ELISA, 100 µL S1D12 capture mAb was used to coat a nunc 96 well Maxisorp plate at 1 μg/ml and incubated for 1 hour at 37° C. Plate was washed as previously and then blocked for 1 hour at 37° C., in 2% MPBS. Brain homogenate samples (50 ng total protein) from each mouse type were added to the first wells and double diluted across the plate in PBS. These samples were left to incubate at RT for 1 hour. Various detection scAbs encompassing epitopes of interest were then added to the plate at 1 μg/ml and incubated for 1 h at RT. […]

dGAE aggregates = dGAE aggregates (Homo sapiens, UniProt P10636); assay: Sandwich ELISA on SDS/Triton X-100 treated dGAE aggregates; format: binding
Chain of dGAE aggregates (P10636 614-708): as above
Procedure: For aggregation, 1000 μL 100 μM dGAE+10 μL 10 mM DTT was added to a ‘LoBind’ microfuge tubes and agitated at 700 RPM/37° C., for 24 hours. Resulting sample centrifuged at 17,000×g/4° C., for 60 min and supernatant discarded to remove left over monomer. Pellet resuspended in half the original volume for future experiments and hereafter referred to as ‘aggregates’. 1 μl of aggregates was added to 1 ml of PBS and SDS was added to a final concentration of 1% (w/v). This was left to incubate on lab bench for 1 h with gentle agitation every 15 minutes. In order to neutralise the SDS effect on ELISA, Triton X-100 added to a final concentration of 3% (v/v) and mixed gently by pipetting to prevent any bubble formation. […] Similarly aggregates treated with only SDS or Triton X-100, untreated aggregates, dGAE monomers treated with only SDS or SDS+Titon X-100 were also added to designated wells as controls. All samples were then double diluted across the plate in final volumes of 100 μl. The final column was left with no protein to act as a blank. This was allowed to stand at room temperature for 1 hour followed by the addition of detection scAb-S1G2 at 10 μg/ml. Anti-HuCk HRP labelled secondary antibody was added as described previously and ELISA data generated was represented using the graph below. In addition, limits of detection (LoD) of various core binding antibody pairing for SDS Triton X-100 treated dGAE aggregates were calculated using the above describe ELISA method and substituting capture mAbs and detection scAbs as shown in Table 30.

Row | Molecule | increase in plasma tau vs vehicle, NT1 assay (plasma tau) | plasma tau, NT1 assay (BT2 capture with Tau12 detection) (plasma tau; S1D12 mAb 30 mg/kg weekly for 6 weeks) | increase in plasma tau vs vehicle, BT2-HT7 (plasma tau; did not reach statistical significance) | ThS fluorescence signal at 483 nm (dGAE [1]) | dGAE secondary structure by CD (dGAE [2]) | tau detection in mouse brain homogenate [3] | LoD (dGAE aggregates; S1D12 mAb capture, untreated dGAE agg.) | LoD (dGAE aggregates; direct immobilisation of dGAE aggregates, +SDS Triton)
1 | B1 | four-fold increase | 3.2 ± 0.42 pg/mL | two-fold increase | this signal was abolished; also recorded: abolished when s1D12 is included in the assembly mixture | dGAE cannot assemble into β-sheet rich fibrils; also recorded: indicating that dGAE has not assembled into fibrils | – | – | –
2 | B2 | – | – | – | – | – | tau protein was detected in 50 μg of total brain protein in all four different sample types | 250 ng/mL | 16 ng/mL
